Patent publication US20170327844A1

Biological target: cation-independent mannose 6-phosphate (M6P) receptor (MPR) (UniProt P11717)
Assay: cell-based or functional assay

Sequence of UniProt P11717 (P11717 41-2491): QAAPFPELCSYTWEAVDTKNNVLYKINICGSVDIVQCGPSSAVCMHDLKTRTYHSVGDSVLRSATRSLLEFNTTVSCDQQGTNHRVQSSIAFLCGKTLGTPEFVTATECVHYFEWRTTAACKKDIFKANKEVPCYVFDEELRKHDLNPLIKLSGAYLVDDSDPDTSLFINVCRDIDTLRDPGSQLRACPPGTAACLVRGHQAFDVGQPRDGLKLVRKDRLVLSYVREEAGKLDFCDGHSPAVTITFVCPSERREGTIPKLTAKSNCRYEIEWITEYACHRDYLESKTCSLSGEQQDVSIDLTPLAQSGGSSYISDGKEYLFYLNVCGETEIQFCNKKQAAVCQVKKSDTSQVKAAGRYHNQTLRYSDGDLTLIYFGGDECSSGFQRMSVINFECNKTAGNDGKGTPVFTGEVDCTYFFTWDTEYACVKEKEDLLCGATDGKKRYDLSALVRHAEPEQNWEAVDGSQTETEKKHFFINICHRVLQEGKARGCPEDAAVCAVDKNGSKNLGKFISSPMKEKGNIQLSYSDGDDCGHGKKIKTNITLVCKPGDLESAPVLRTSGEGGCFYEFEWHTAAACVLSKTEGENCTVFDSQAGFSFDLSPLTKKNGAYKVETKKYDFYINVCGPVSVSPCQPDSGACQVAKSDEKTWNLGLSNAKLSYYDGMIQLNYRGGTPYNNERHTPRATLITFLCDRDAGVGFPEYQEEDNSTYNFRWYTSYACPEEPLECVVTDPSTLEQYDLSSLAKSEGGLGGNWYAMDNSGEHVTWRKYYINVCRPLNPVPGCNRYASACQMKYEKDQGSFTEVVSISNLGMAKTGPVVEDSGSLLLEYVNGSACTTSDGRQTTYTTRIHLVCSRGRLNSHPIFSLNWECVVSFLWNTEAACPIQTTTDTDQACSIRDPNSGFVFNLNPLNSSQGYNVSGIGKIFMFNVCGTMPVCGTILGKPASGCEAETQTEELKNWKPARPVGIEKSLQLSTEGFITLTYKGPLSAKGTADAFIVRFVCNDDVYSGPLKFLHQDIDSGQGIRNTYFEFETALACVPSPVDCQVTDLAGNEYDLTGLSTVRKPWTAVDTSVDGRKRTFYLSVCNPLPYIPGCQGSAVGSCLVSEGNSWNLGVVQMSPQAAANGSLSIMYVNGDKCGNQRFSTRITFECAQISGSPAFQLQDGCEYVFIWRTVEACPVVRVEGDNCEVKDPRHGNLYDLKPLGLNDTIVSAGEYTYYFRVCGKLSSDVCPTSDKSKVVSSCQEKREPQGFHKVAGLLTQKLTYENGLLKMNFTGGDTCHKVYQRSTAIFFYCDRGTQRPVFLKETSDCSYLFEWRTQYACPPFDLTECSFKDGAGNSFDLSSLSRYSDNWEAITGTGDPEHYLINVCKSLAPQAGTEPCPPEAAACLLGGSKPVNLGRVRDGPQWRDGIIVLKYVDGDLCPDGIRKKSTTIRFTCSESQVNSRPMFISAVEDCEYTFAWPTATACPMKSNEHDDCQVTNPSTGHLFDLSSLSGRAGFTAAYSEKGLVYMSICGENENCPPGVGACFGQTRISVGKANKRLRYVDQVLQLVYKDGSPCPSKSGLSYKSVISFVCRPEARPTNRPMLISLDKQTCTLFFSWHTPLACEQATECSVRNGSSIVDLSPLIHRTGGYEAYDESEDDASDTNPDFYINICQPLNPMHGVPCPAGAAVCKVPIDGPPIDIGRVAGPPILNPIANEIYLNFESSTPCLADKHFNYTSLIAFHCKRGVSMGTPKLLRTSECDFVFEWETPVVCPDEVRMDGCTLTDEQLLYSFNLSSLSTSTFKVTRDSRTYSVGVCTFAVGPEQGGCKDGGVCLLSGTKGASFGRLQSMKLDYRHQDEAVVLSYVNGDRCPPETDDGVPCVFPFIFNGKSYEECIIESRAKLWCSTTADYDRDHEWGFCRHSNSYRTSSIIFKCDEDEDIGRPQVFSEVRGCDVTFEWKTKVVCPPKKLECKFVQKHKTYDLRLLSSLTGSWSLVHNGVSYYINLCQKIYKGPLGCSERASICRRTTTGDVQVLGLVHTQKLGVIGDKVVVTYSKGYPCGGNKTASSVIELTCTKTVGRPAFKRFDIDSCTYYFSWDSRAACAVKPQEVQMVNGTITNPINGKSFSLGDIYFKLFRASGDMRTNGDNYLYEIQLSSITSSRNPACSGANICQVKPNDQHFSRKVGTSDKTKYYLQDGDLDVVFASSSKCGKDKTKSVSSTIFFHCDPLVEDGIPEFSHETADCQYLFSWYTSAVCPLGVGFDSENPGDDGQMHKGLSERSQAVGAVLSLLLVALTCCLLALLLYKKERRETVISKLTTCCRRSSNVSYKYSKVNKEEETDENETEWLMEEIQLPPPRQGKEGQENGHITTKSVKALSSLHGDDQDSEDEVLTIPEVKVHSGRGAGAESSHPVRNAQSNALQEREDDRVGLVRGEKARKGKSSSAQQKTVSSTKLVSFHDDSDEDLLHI

intracellular IDUA level in LCLmps cells after uptake, relative to wild-type (% of wild-type levels): 10 | intracellular IDUA specific activity in LCLmps cells after 3 hr uptake from conditioned medium: 0.8 U/mg
Substance: alpha-L-iduronidase (IDUA) released by erythroid-induced MEL-KIiG cells (human IDUA cDNA) (from UniProt P35475 28-653) (enzyme)
